This note sets out measurements from patent US20180312557A1, “Leg1 Protein, Leg1 Gene, and Uses and Drugs thereof” (ZHEJIANG UNIVERSITY, priority 2016, published 2018).

Assay [1] deals with T1, EGFR (Mus musculus, UniProt Q01279).
T1 construct: from tissue; host or cells: liver of mLeg1^Δ/Δ mice
Put plainly: EGFR interacting with mLeg1 in liver after intragastric administration (co-immunoprecipitation). In kind it is in vivo. The protocol:
22.1 The column chromatography partially purified mLeg1 protein was intragastrically administered to the mLeg1^Δ/Δ mice at 50 ng of mLeg1 per gram of body weight of the mice.
22.2 The mice were sacrificed at different time points (0, 10, 20, 40, 60 min) after intragastric administration and liver samples were collected, an immunoprecipitation experiment was conducted to pull down mLeg1 protein (if there is any) and its interacting protein in the liver by using mLeg1 antibodies Reference may be made to steps 21.2-21.5.

Assay [2] addresses T2, EGFR (Homo sapiens, UniProt P00533).
T2 construct: endogenous in cells; host or cells: HepG2
Briefly: Effect of EGFR inhibitor on mLeg1-induced Akt and EGFR phosphorylation in HepG2 cells. In kind it is cell-based. The note with it: HepG2, 15 minutes. The text has this: 20.1 Culture of the HepG2 cell: reference may be made to step 18.1 for details.

B1: mLeg1 protein: mouse secretory protein (SEQ ID NO: 2) encoded by mLeg1 gene, partially purified from salivary glands by column chromatography (protein, listed as Mus musculus)
chain: MAVLASWVWVLAGCFCAAVAEVSDSSDPYPPLWEDSPEQLSDYMMEDGNYIINPWVYTDRMGMYRILLEETAMYFAKYGPENEQNLLWGLPLQFGWQYQSGRLADPTGMTDCGNELNESLCVSVDSWWADINYYLSVIPFLAAVDSGITGISPNQITILPPPKDQMRFCYNVSDCQSAVPGTMNRWRDFFQYMQLNSSDFDGLLNYLWEAHASSLDYPTSAFGDRYNFYSEKEANFEENWAIAVNYLAAARLPTTQNRTYSFQRGLPPRVLVDTDIAPFIPDFTPLQNEVLVSLKLLGDTDRNSGSLSLTLWENLMSTKLARTLFLKAFEEFLATSS
modifications: partially purified
Take B1: the “time at which the amount of EGFR that interacts with mLeg1 reached the maximum” value in the assay with EGFR [1] came to 10 min. Moreover, the EGFR phosphorylation entry in the assay with EGFR [2] (mLeg1 treatment) is recorded as “induced EGFR phosphorylation”. Further, the Akt phosphorylation result with EGFR [2] (partially purified mLeg1 vs BSA control) is “could be induced”.
